Experimental findings from publication PMC10813002, “Neurofilament Light Protein Rod Domain Exhibits Structural Heterogeneity” (Biomolecules, 2024) are described below.

Data set [1] deals with the molecule itself. As to the kind of experiment: SEC + cross-linking; 250 uL of 2 mg/mL protein on Superose 6 Increase 10/300 GL in 5 mM HEPES pH 8.0, 0.5 mM EGTA, 2 mM DTT; samples from each peak cross-linked with 0.024% glutaraldehyde at 30 °C for 60 min, SDS-PAGE in 12.5% gel.
Data set [2] concerns the molecule itself. Kind of data set: cross-linking; NFL1B at 1 and 2 mg/mL, 0.008% or 0.024% glutaraldehyde, SDS-PAGE.

B1: NFLROD (neurofilament light chain protein rod domain, coils 1A, 1B and 2, Ser80-Glu396) (domain or fragment, human, UniProt P07196 80-396, looked up)
chain: SNDLKSIRTQEKAQLQDLNDRFASFIERVHELEQQNKVLEAELLVLRQKHSEPSRFRALYEQEIRDLRLAAEDATNEKQALQGEREGLEETLRNLQARYEEEVLSREDAEGRLMEARKGADEAALARAELEKRIDSLMDEISFLKKVHEEEIAELQAQIQYAQISVEMDVTKPDLSAALKDIRAQYEKLAAKNMQNAEEWFKSRFTVLTESAAKNTDAVRAAKDEVSESRRLLKAKTLEIEACRGMNEALEKQLQELEDKQNADISAMQDTINKLENELRTTKSEMARYLKEYQDLLNVKMALDIEIAAYRKLLEGE
notes: neurofilament light chain protein (NFL), human, product of the NEFL gene, UniProt P07196, rod domain (coils 1A, 1B and 2), residues Ser80-Glu396; The monomer mass used for DSC is 36.6 kDa; also called NFL rod domain; full rod domain (1A+1B+2); source: E. coli C41, inclusion bodies solubilised in 8 M urea, purified (HisTrap HP), renatured by dialysis
As for B1, the stoichiometry N – broadly, the number of molecules, sites or subunits per partner or assembly – in data set [1] stood at 4.

B2: NFL_(1A+1B) (neurofilament light chain protein, coils 1A and 1B, Ser80-Ile243) (domain or fragment, human, UniProt P07196 80-243, looked up)
chain: SNDLKSIRTQEKAQLQDLNDRFASFIERVHELEQQNKVLEAELLVLRQKHSEPSRFRALYEQEIRDLRLAAEDATNEKQALQGEREGLEETLRNLQARYEEEVLSREDAEGRLMEARKGADEAALARAELEKRIDSLMDEISFLKKVHEEEIAELQAQIQYAQI
notes: neurofilament light chain protein (NFL), human, product of the NEFL gene, UniProt P07196, coils 1A and 1B, residues Ser80-Ile243; The monomer mass used for DSC is 19.2 kDa; also called coil 1; source: E. coli C41, purified from the fraction of soluble proteins (HisTrap HP, imidazole gradient)
In the case of B2, in data set [1], the “stoichiometry N” value was 2.

B3: NFL2 (neurofilament light chain protein, coil 2, Val249-Glu396) (domain or fragment, human, UniProt P07196 249-396, looked up)
chain: VTKPDLSAALKDIRAQYEKLAAKNMQNAEEWFKSRFTVLTESAAKNTDAVRAAKDEVSESRRLLKAKTLEIEACRGMNEALEKQLQELEDKQNADISAMQDTINKLENELRTTKSEMARYLKEYQDLLNVKMALDIEIAAYRKLLEGE
notes: neurofilament light chain protein (NFL), human, product of the NEFL gene, UniProt P07196, coil 2, residues Val249-Glu396; The monomer mass used for DSC is 16.9 kDa; also called NFL coil 2; source: E. coli C41, inclusion bodies solubilised in 8 M urea, purified (HisTrap HP), renatured by dialysis
Regarding B3, the “stoichiometry N” value in data set [1] came out at 2.

B4: NFL_(1B+2) (neurofilament light chain protein, coils 1B and 2, Ser133-Glu396) (domain or fragment, human, UniProt P07196 133-396, looked up)
chain: SRFRALYEQEIRDLRLAAEDATNEKQALQGEREGLEETLRNLQARYEEEVLSREDAEGRLMEARKGADEAALARAELEKRIDSLMDEISFLKKVHEEEIAELQAQIQYAQISVEMDVTKPDLSAALKDIRAQYEKLAAKNMQNAEEWFKSRFTVLTESAAKNTDAVRAAKDEVSESRRLLKAKTLEIEACRGMNEALEKQLQELEDKQNADISAMQDTINKLENELRTTKSEMARYLKEYQDLLNVKMALDIEIAAYRKLLEGE
notes: neurofilament light chain protein (NFL), human, product of the NEFL gene, UniProt P07196, coils 1B and 2, residues Ser133-Glu396; The monomer mass used for DSC is 30.4 kDa; source: E. coli C41, inclusion bodies solubilised in 8 M urea, purified (HisTrap HP), renatured by dialysis
On to B4, for which, in data set [1], the “stoichiometry N” value worked out at 4.

B5: NFL1B (neurofilament light chain protein, coil 1B, Ser133-Ile243) (domain or fragment, human, UniProt P07196 133-243, looked up)
chain: SRFRALYEQEIRDLRLAAEDATNEKQALQGEREGLEETLRNLQARYEEEVLSREDAEGRLMEARKGADEAALARAELEKRIDSLMDEISFLKKVHEEEIAELQAQIQYAQI
notes: neurofilament light chain protein (NFL), human, product of the NEFL gene, UniProt P07196, coil 1B, residues Ser133-Ile243; Dimer at 1-2 mg/mL; larger oligomers also at 5 mg/mL; also called NFL coil 1B domain; source: E. coli C41, purified from the fraction of soluble proteins (HisTrap HP, imidazole gradient)
In the case of B5, the “stoichiometry N” value in data set [2] was 2.
